Patent US20110206615A1

Target: mKO2-Nrf2 fusion molecule (mKO2 fused to amino acids 1-100 of human Nrf2, released from the probe reagent mKO2-Nrf2-100-T2A-Keap1 by self-cleavage at T2A) (human) (UniProt Q16236)
Experiment: cell-based or functional assay

UniProt Q16236, sequence (Q16236 other isoform, or with tags, fused parts or gaps): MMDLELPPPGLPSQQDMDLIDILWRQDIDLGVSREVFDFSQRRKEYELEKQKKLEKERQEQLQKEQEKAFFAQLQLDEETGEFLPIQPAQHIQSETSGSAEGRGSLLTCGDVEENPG

- fluorescent intensity of mKO2 in HeLa cells after addition of DEM (oxidative stress inducer) at 100 µM: 10 times
Substance: human Keap1 (regulatory factor, released from mKO2-Nrf2-100-T2A-Keap1 by self-cleavage at T2A) (from UniProt Q14145 1-624)
